In the RNAGym collection of RNA variant scans (doi:10.7554/elife.80360) one finds self-cleavage data, which are given here for 38 variants.

The labels stand for the following.
B1: Hairpin Ribozyme (parent)
chain: GUCCUCUUUCACGUGCGCGUGAAAGAGAGAAGUGAACCAGAGAAACACACGUUGUGGUAUAUUACCUGGUA

The variants in the data set derive from B1. The experiment in a line: self-cleavage, relative activity (ratio to wild type); higher = more cleavage; co-transcriptional.
Turning to GUCCUCUUUCACGUGCGCGUGAAAGAGAGAAGUGAACCAGAGAAACACACGUUGUGGUAUAUUACAUCGUA [C66A G68C], the self-cleavage worked out at 0.161. As to GUCCUCUUUCACGUGCGCGGGAAAGAGAGAAGUGACCCAGAGAAACACACGUUGUGGUAUAUUACCUGGUA [U20G A36C], the self-cleavage came to 0.771. On to GUCCUCUAUCACGUGCGCGUGAAAUAGAGAAGUGAACCAGAGAAACACACGUUGUGGUAUAUUACCUGGUA [U8A G25U], for which the self-cleavage was found to be 0.114.

With GUCCUCUUGCACGUGCGCGUGAGAGAGAGAAGUGAACCAGAGAAACACACGUUGUGGUAUAUUACCUGGUA [U9G A23G], the self-cleavage worked out at 0.72. Under GUCCUCUUUCACGUGCGCGUGACAGAGAGAAGUGAACCAGAGAAACACACGUUGUGAUAUAUUACCUGGUA [A23C G57A] stands 0.196. Under GUCCUCUUUCACGUGCGCGUGAAAGACAGAAGAGAACCAGAGAAACACACGUUGUGGUAUAUUACCUGGUA [G27C U33A] stands 0.0754. Regarding GUCCUCUUUCACGUGCGCGUGAAAGAGAGAACUGAACCAGAGAAACACACGUUGUGGUAUAUAACCUGGUA [G32C U63A], the self-cleavage worked out at 0.208. Under GUCCUCUUGCACGUGCGCGUGAAAGAGAGAAGUGAACCAGAGAAACACACGUUGUGGUAUAUUAACUGGUA [U9G C65A] stands 0.609. Under GUCCUCUUUCACGUGCGCGUGAAACAUAGAAGUGAACCAGAGAAACACACGUUGUGGUAUAUUACCUGGUA [G25C G27U] stands 0.164; under GUCCUCUUCCACGAGCGCGUGAAAGAGAGAAGUGAACCAGAGAAACACACGUUGUGGUAUAUUACCUGGUA [U9C U14A], 0.781; under GUCCUCUUUCACGUCCGCGUGAAAGAGAGAAGUGAACCAGAGAAACACACGUUUUGGUAUAUUACCUGGUA [G15C G54U], 0.647. Under GUCCUCUUUCACGUGCGCGUGAAAGAGAGAAGUGAACCAGGGAAACACACGUUGUGGUAUAUGACCUGGUA [A41G U63G] stands 0.248. As for GUCCUCUUUCACGAGCGCGUGAAAGAGAGAAGUGAACCAGAGAAACACACGUUGUGGUAUAUUACCGGGUA [U14A U67G], the self-cleavage is 0.277. To GUCCGCUUUCACGUGCGCGUGAAAGAGAGAAGUGAACCAGAGAAACACACGUUGUGGUAUAUUACCUGCUA [U5G G69C] belongs 0.104; to UUCCUCUUUCACGUGCGCGUGAAAGAGAAAAGUGAACCAGAGAAACACACGUUGUGGUAUAUUACCUGGUA [G1U G29A], 0.08. On to GUCCUCUUUCACGUGGGCGUGAAAGAGAGAAGUGAACCAGAGAAGCACACGUUGUGGUAUAUUACCUGGUA [C16G A45G], for which the self-cleavage was 0.126. To GUCCUCUUUCACGUGCGCGUGAAAGAGAGAAGUGAACCAGAGAAACACACGUUGUGGUAUAGUCCCUGGUA [U62G A64C] belongs 0.2. Under GUCCUCUUUCACGUGCGCGUGAAAGAGAGAAGUGAACCAGAGAAACACACGUUGAGGUAUAUUAGCUGGUA [U55A C65G] stands 0.19; under GUCCUCUUUCACGUCCGCGUGAAAGAGAGAAGUGAACCAGAGAAACACACGUUGUGGUAUAUUAACUGGUA [G15C C65A], 0.928; under GUCCUCUUUCACGUGCGCGUGAAGGAGAGAAGUGAACCAGGGAAACACACGUUGUGGUAUAUUACCUGGUA [A24G A41G], 0.78.

GUCCUCUUUCACGUGCGCGUGAAAGAGAGAAGUGAACCAGAGAAACACACGUUGUGGUAUAUUGCCAGGUA [A64G U67A]: the self-cleavage amounted to 0.0458. To GUCCUCUUUCACGGGCGCGUGAAAGAGAGAAGUGAACCAGAGAAACACACGUUGUGGUAUAUUGCCUGGUA [U14G A64G] belongs 0.407; to GUCCUCUUUCACGUGCGCGUGAAAGAGAGAAGUGAACCAGAGAAACUCACGUAGUGGUAUAUUACCUGGUA [A47U U53A], 0.133. To GUCCUCUUUCACAUGCGCGUGAAAGAGAGAAGUGAACCAGAGAAACACACGUUGUUGUAUAUUACCUGGUA [G13A G56U] belongs 0.137. To GUCCUCUUUCACGUGGGCGUGAAAGAGAGAAGUGAACCAGAGAAAGACACGUUGUGGUAUAUUACCUGGUA [C16G C46G] belongs 0.183. As to GUCCACUUUCACGUGCGCGUGAAAGAGAGAAGUGCACCAGAGAAACACACGUUGUGGUAUAUUACCUGGUA [U5A A35C], the self-cleavage is 0.364. Under GUCCUCUUUCACGUCCGCGUGAAAGAGAGAAGUGAACCAUAGAAACACACGUUGUGGUAUAUUACCUGGUA [G15C G40U] stands 0.23. For the variant GUCCUCUUUCACGUGCGCGUGAAAGAGAGAAGUGAACCAGAAAAACACACGUUGUGGUAUAUUACCUGGGA [G42A U70G], the self-cleavage was found to be 0.161. To GUCCUCUUUCAUGUGCGCGUGAAAGAGAGAAGUGAACCAGAGAAACACACGUUGUGGUAUAUUACCUGCUA [C12U G69C] belongs 0.367; to GUCCUCUUUCAUGUGCGCGUGAAAGCGAGAAGUGAACCAGAGAAACACACGUUGUGGUAUAUUACCUGGUA [C12U A26C], 0.481; to GUCCUCUUUCACGUGCGAGUGAAAGAGUGAAGUGAACCAGAGAAACACACGUUGUGGUAUAUUACCUGGUA [C18A A28U], 0.844.

For GUCCUCUUUCACGUGCGCGUGAAAGAGAGAAGUGCACCAGAGAAACACACGUUGUGGUAUAUUACCAGGUA [A35C U67A], the self-cleavage came out at 0.301.

On to GUCCUCUUUCACGUGCGCGUGAAAGAGAGAAGUGAACCAGAGAAACACACGCUGUGGUAUAUGACCUGGUA [U52C U63G], for which the self-cleavage was 0.341. To GUCCUCUUUCACCUGCGCGUGAAAGAGAGAAGUGAACCAGAGAAACACACGUUGUGGUAUAUUAACUGGUA [G13C C65A] belongs 0.726; to AUCCUCUUUCACGUGCGCGUAAAAGAGAGAAGUGAACCAGAGAAACACACGUUGUGGUAUAUUACCUGGUA [G1A G21A], 0.154. Under GUCCUCUUUCACGUGCGCGUGAAAUAGAGAAGUGUACCAGAGAAACACACGUUGUGGUAUAUUACCUGGUA [G25U A35U] stands 0.474. To GUCCUCUUUCACGUGCGCGUGAAAGAGAGAAGUGAACCACAGAAACACACGUUGUGGUAUAUUACGUGGUA [G40C C66G] belongs 0.519; to GUUCUCUUUCACGUGCGCGUGAAAGAGAGAAGUGAACCAGAGAAACACACGUUGUGGUGUAUUACCUGGUA [C3U A59G], 0.0802.
